From patent publication US20250276092A1 (Regeneron, published 2025)

Assays:
[1] = molecular target: T1, human CD40 expressed on cells (human, UniProt P25942 21-277); experiment: cell-based or functional assay
[2] = molecular target: T1, human CD40 expressed on cells; experiment: cell-based or functional assay; remark: listed apart in the source
[3] = molecular target: T1, human CD40 expressed on cells; experiment: cell-based or functional assay; remark: listed apart in the source
[4] = molecular target: T1, human CD40 expressed on cells; experiment: cell-based or functional assay; remark: listed apart in the source
[5] = molecular target: T1, human CD40 expressed on cells; experiment: cell-based or functional assay; remark: listed apart in the source
[6] = molecular target: T1, human CD40 expressed on cells; experiment: cell-based or functional assay; remark: listed apart in the source
[7] = molecular target: T2, human CD40 extracellular domain expressed with a C-terminal myc-myc-hexahistidine tag (human); experiment: BLI Octet, hCD40-MMH captured on anti-Penta-His tips
T2 construct: also called hCD40-MMH; hCD40-mmH
T2 sequence (chain, as listed by the source limits assumed): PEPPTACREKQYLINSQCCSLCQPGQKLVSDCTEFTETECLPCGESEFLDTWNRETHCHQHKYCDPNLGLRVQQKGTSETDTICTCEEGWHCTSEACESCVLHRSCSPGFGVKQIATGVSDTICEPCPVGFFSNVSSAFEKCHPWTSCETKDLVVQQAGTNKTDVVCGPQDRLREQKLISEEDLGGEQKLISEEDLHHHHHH
Experimental: Binding competition between different anti-CD40 monoclonal antibodies (mAbs) was determined using a real time, label-free bio-layer interferometry (BLI) assay on the Octet HTX biosensor platform (Pall ForteBio Corp.). In addition to parental antibodies 21519P2, 21520P2, and 30027P2, a comparator anti-CD40 antibody (REGN11209) was also tested; this comparator has the heavy chain and light chain sequences of iscalimab (see, U.S. Pat. No. 8,828,396). The entire experiment was performed at 25° C. in 10 mM HEPES buffer containing 150 mM NaCl, 3 mM EDTA, 1 mg/mL BSA, 0.02% NaN₃, and 0.05% v/v Surfactant Tween-20 at pH 7.4 (HBS-EP) with the plate shaking at a speed of 1000 rpm.
To assess the ability of one antibody to compete with another antibody for binding to CD40, around 0.47 nm-0.54 nm of recombinant human CD40 extracellular domain expressed with a C-terminal myc-myc-hexahistidine (hCD40-MMH; SEQ ID NO: 53) was first captured onto anti-Penta-His antibody coated Octet biosensor tips (Fortebio Inc, #18-5122) by submerging the biosensor tips in wells containing 10 μg/mL solution of the hCD40-MMH for 90 seconds. […] The real-time binding response was monitored and the binding response at the end of every step was recorded. […]

T1 sequence (P25942 21-277): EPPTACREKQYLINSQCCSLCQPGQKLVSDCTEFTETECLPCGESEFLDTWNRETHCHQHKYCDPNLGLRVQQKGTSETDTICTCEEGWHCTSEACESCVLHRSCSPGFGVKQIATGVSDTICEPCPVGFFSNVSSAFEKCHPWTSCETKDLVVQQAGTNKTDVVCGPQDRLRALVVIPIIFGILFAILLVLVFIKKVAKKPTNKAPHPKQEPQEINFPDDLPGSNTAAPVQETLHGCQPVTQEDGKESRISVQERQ

B1: REGN11209 (comparator anti-CD40 antibody with the heavy chain and light chain sequences of iscalimab) (antibody, human IgG1, kappa, N297A, V domains shown)
VH: QVQLVESGGGVVQPGRSLRLSCAASGFTFSSYGMHWVRQAPGKGLEWVAVISYEESNRYHADSVKGRFTISRDNSKITLYLQMNSLRTEDTAVYYCARDGGIAAPGPDYWGQGTLVTVSS
VL: DIVMTQSPLSLTVTPGEPASISCRSSQSLLYSNGYNYLDWYLQKPGQSPQVLISLGSNRASGVPDRFSGSGSGTDFTLKISRVEAEDVGVYYCMQARQTPFTFGPGTKVDIRR
notes: also called COMP11209; CFZ533
% max blockade relative to no mAb, IL-6, B cells, donor 1 [1]: 84.2% | % max blockade relative to no mAb, IL-6, B cells, donor 2 [1]: 91.3% | % max blockade relative to no mAb, IL-6, B cells, donor 3 [1]: 91.3% | % max blockade relative to no mAb, IL-10, B cells, donor 1 [2]: 84.1% | % max blockade relative to no mAb, IL-10, B cells, donor 2 [2]: 91.7% | % max blockade relative to no mAb, IL-10, B cells, donor 3 [2]: 91.4% | % max blockade relative to no mAb, TNFa, B cells, donor 1 [3]: 53.9% | % max blockade relative to no mAb, TNFa, B cells, donor 2 [3]: 71.4% | % max blockade relative to no mAb, TNFa, B cells, donor 3 [3]: 73.9% | % max blockade relative to no mAb, IL-6, assay #2, donor 1 [4]: 88.6% | % max blockade relative to no mAb, IL-6, assay #2, donor 2 [4]: 88.3% | % max blockade relative to no mAb, IL-10, assay #2, donor 1 [5]: 88.1% | % max blockade relative to no mAb, IL-10, assay #2, donor 2 [5]: 90.5% | % max blockade relative to no mAb, TNFa, assay #2, donor 1 [6]: 62% | % max blockade relative to no mAb, TNFa, assay #2, donor 2 [6]: 50.6% | binding result [7]: binds
